Literature values as cited in PMC4390431.
Read-outs that look alike come from different tables or passages of the source.

Assays:
[1] = molecular target: IscU (Escherichia coli) (UniProt P0ACD4); experiment: SPR
[2] = molecular target: IscU (Escherichia coli) (UniProt P0ACD4); experiment: SPR; remark: listed apart in the source

Sequence of UniProt P0ACD4 (P0ACD4 whole entry): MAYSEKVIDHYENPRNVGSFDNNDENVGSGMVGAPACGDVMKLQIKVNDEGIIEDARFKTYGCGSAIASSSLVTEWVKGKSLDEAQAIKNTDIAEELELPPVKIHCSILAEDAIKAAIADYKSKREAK

HscA (from UniProt P0A6Z1)
Kd [1]: 0.1 µM
Kd [2]: 37 µM
